Test results taken from paper PMC2788227 (PLoS ONE, 2009).

Biological target: the molecule itself
Experiment: SEC

B1: Francisella tularensis subsp. holarctica LVS 1-deoxy-D-xylulose 5-phosphate reductoisomerase (MEP sy (enzyme)
chain: MFKKTKITILGATGSIGDSTLAVIRETNDFEVFALTAFSNVEKLAELCQEFKPKFAVVPDLSKKQKLQSLVTDVEVLVGESGLEKVSSLAEIDIVMSAIVGIAGLKPTFAAAKAGKKILLANKESLVTAGHLLIDEVVKNNAQLIPVDSEHNAIFQCIDNHDKKCLPEIDKIILTASGGPFRDKQLHELTDVTPEQACNHPNWQMGRKISVDSSTMVNKALEVIEAYWLFSVSADKIGVLIHPQSVTHSIVRYVDGSYIAQLGVPDMKTPIANAMYYPKRGSVNVESLDFTKYQLTFREACFERFEALKIVFNNLQNKNYAANIVFNAANEELVAAFLNKKIKYLEIIEVNKKVTKELNFENPKNIEEVFEIDRKTREYVDSVLG
stoichiometry N: 2
